Values belong to the molecule of their own block, whether it stands above or below them.
B1: BMP6, mammalian expressed (glycosylated), recombinant human (ligand)
chain: SASSRRRQQSRNRSTQSQDVARVSSASDYNSSELKTACRKHELYVSFQDLGWQDWIIAPKGYAANYCDGECSFPLNAHMNATNHAIVQTLVHLMNPEYVPKPCCAPTKLNAISVLYFDDNSNVILKKYRNMVVRACGCH
modifications: N-linked glycosylation at Asn454 (prehelix loop)
B2: deglycosylated BMP6 (ligand)
chain: B1 chain
modifications: deglycosylated with PNGase F
B3: ActRIIB2-Fc (trap containing two ActRIIB ECDs) (Fc fusion)
chain: SGRGEAETRECIYYNANWELERTNQSGLERCEGEQDKRLHCYASWRNSSGTIELVKKGCWLDDFNCYDRQECVATEENPQVYFCCCEGNFCNERFTHLPEAGGPEVTYEPPPTAP
B4: ALK3 extracellular domain (ALK3 arm of ALK3-ActRIIB in the cryoEM structure) (domain or fragment)
chain: QNLDSMLHGTGMKSDSDQKKSENGVTLAPEDTLPFLKCYCSGHCPDDAINNTCITNGHCFAIIEEDDQGETTLASGCMKYEGSDFQCKDSPKAQLRRTIECCRTNLCNQYLQPTLPPVVIGPFFDGSIR
B5: ALK3-Fc (homodimeric Fc-fusion of ALK3-ECD) (Fc fusion)
chain: B4 chain

Experiments:
[1] = biological target: ActRIIB1-Fc (trap with a single ActRIIB ECD) (human); test: SPR
[2] = biological target: ALK2-ActRIIB-Fc heterodimeric trap (human, UniProt Q04771;Q13705); test: SPR
Chain of ALK2-ActRIIB-Fc heterodimeric trap (Q04771 21-123, one chain of several): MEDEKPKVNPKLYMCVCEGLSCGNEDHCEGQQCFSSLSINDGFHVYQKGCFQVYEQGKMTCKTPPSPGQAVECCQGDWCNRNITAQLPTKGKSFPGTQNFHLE

[3] = biological target: ALK3-ActRIIB-Fc heterodimeric trap (human, UniProt P36894;Q13705); test: SPR
cryo-EM structure = biological target: the molecule itself; test: cryo-EM structure
[4] = biological target: B1; test: SPR
[5] = biological target: B1; test: cryo-EM structure

- Kd [1]: 0.282 nM
Molecule: BMP6, mammalian expressed (glycosylated), recombinant human (from UniProt P22004 375-513) (ligand)

Molecule: B1
- Kd [2]: 0.036 nM
- Kd [3]: 0.0517 nM
- binding result (cryo-EM structure): binds

Molecule: B2
- Kd [2]: 0.164 nM
- Kd [3]: 0.0714 nM

Molecule: B3
- Kd [4]: 0.124 nM

Molecule: B4
- binding result [5]: binds

Molecule: B5
- binding result [4]: binds

Reference: publication doi:10.1101/2025.02.07.637115 (bioRxiv, 2025)
